Test results: US20130005646A1 (Novo Nordisk, published 2013)
Starred links: 1 amine or outer side, 2 acyl side, 3 side chain; linkers in the order of their positions; H or OH if unused. Positions of bridges follow the written chain, without caps; N, C: chain ends. Groups on a side chain read outwards from the residue. No end group written: not given here. *: point of attachment. C20 diacid = O=C(O)CCCCCCCCCCCCCCCCCCC(=O)*; C18 diacid = O=C(O)CCCCCCCCCCCCCCCCC(=O)*; γGlu = O=C(O)[C@H](CCC(=O)[*:2])N[*:1]; AEEA = NCCOCCOCC(=O)O

B1: N-alpha-[(S)-4-Carboxy-4-(19-carboxynonadecanoylamino)butyryl]-[des1,Glu14,His17,His35]-pramlintide (peptide)
peptide: {C20 diacid-γGlu}-CNTATCATQRLAEFLHHSSNNFGPILPPTNVGSHTY-NH2
modifications: disulfide 1-6
SMILES: CC[C@H](C)[C@H](NC(=O)[C@@H]1CCCN1C(=O)CNC(=O)[C@H](Cc1ccccc1)NC(=O)[C@H](CC(N)=O)NC(=O)[C@H](CC(N)=O)NC(=O)[C@H](CO)NC(=O)[C@H](CO)NC(=O)[C@H](Cc1c[nH]cn1)NC(=O)[C@H](Cc1c[nH]cn1)NC(=O)[C@H](CC(C)C)NC(=O)[C@H](Cc1ccccc1)NC(=O)[C@H](CCC(=O)O)NC(=O)[C@H](C)NC(=O)[C@H](CC(C)C)NC(=O)[C@H](CCCNC(=N)N)NC(=O)[C@H](CCC(N)=O)NC(=O)[C@@H](NC(=O)[C@H](C)NC(=O)[C@@H]1CSSC[C@H](NC(=O)CC[C@H](NC(=O)CCCCCCCCCCCCCCCCCCC(=O)O)C(=O)O)C(=O)N[C@@H](CC(N)=O)C(=O)N[C@@H]([C@@H](C)O)C(=O)N[C@@H](C)C(=O)N[C@@H]([C@@H](C)O)C(=O)N1)[C@@H](C)O)C(=O)N[C@@H](CC(C)C)C(=O)N1CCC[C@H]1C(=O)N1CCC[C@H]1C(=O)N[C@H](C(=O)N[C@@H](CC(N)=O)C(=O)N[C@H](C(=O)NCC(=O)N[C@@H](CO)C(=O)N[C@@H](Cc1c[nH]cn1)C(=O)N[C@H](C(=O)N[C@@H](Cc1ccc(O)cc1)C(N)=O)[C@@H](C)O)C(C)C)[C@@H](C)O
B2: N-epsilon25-[2-(2-{2-[2-(2-{2-[(S)-4-Carboxy-4-(17-carboxyheptadecanoylamino)butyrylamino]ethoxy}ethoxy)acetylamino]ethoxy}ethoxy)acetyl]-[Glu14,Ser21,Lys25]-pr … (peptide)
peptide: KCNTATCATQRLAEFLVHSSSNFGK([AEEA-AEEA-γGlu-C18 diacid])ILPPTNVGSNTY-NH2
modifications: disulfide 2-7; N-terminus assumed
SMILES: CC[C@H](C)[C@H](NC(=O)[C@H](CCCCNC(=O)COCCOCCNC(=O)COCCOCCNC(=O)CC[C@H](NC(=O)CCCCCCCCCCCCCCCCC(=O)O)C(=O)O)NC(=O)CNC(=O)[C@H](Cc1ccccc1)NC(=O)[C@H](CC(N)=O)NC(=O)[C@H](CO)NC(=O)[C@H](CO)NC(=O)[C@H](CO)NC(=O)[C@H](Cc1c[nH]cn1)NC(=O)[C@@H](NC(=O)[C@H](CC(C)C)NC(=O)[C@H](Cc1ccccc1)NC(=O)[C@H](CCC(=O)O)NC(=O)[C@H](C)NC(=O)[C@H](CC(C)C)NC(=O)[C@H](CCCNC(=N)N)NC(=O)[C@H](CCC(N)=O)NC(=O)[C@@H](NC(=O)[C@H](C)NC(=O)[C@@H]1CSSC[C@H](NC(=O)[C@@H](N)CCCCN)C(=O)N[C@@H](CC(N)=O)C(=O)N[C@@H]([C@@H](C)O)C(=O)N[C@@H](C)C(=O)N[C@@H]([C@@H](C)O)C(=O)N1)[C@@H](C)O)C(C)C)C(=O)N[C@@H](CC(C)C)C(=O)N1CCC[C@H]1C(=O)N1CCC[C@H]1C(=O)N[C@H](C(=O)N[C@@H](CC(N)=O)C(=O)N[C@H](C(=O)NCC(=O)N[C@@H](CO)C(=O)N[C@@H](CC(N)=O)C(=O)N[C@H](C(=O)N[C@@H](Cc1ccc(O)cc1)C(N)=O)[C@@H](C)O)C(C)C)[C@@H](C)O

Experiments:
[1] = target: T1, human calcitonin (a) receptor (human, UniProt P30988 25-474); experiment: cell-based or functional assay
T1 sequence (looked up): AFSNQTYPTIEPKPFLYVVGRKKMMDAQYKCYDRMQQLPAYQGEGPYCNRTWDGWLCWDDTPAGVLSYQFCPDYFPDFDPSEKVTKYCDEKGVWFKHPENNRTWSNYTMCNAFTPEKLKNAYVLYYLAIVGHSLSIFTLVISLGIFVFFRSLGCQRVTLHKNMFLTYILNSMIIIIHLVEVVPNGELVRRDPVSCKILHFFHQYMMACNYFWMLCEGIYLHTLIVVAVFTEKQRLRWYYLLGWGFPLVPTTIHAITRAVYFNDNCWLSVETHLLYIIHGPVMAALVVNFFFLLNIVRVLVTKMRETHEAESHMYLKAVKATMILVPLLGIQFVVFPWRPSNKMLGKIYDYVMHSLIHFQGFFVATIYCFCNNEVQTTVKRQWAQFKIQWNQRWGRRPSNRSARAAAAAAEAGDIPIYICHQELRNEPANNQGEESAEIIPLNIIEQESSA

[2] = target: T2, human amylin 3(a) receptor (human calcitonin receptor + RAMP-3) (human, UniProt P30988 25-474; O60896 24-148); experiment: cell-based or functional assay
T2 sequence (looked up) 1: T1 sequence (looked up)
T2 sequence (looked up) 2: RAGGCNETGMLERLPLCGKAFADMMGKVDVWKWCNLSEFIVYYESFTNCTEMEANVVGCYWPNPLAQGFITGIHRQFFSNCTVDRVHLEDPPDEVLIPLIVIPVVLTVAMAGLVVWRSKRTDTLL

CTa receptor human EC50 [1] [nM]	Amylin receptor human EC50 [2] [nM]	Binder
0.286	0.365	B1
0.101	0.089	B2
